In patent US20200190136A1, “METHODS FOR GENERATING SMALL MOLECULE DEGRADERS AND DIMERIZERS” (DANA-FARBER CANCER INSTITUTE, INC., priority 2017, published 2020) one finds apparent cooperativity factor αapp (IC50[binary]/IC50[ternary]) data, which are given here for one substance.

Assay [1] has as its target His6-DDB1ΔB-His6-CRBN complex (human) (UniProt Q16531). As to the kind of experiment: FP lenalidomide-Atto565 displacement from DDB1ΔB-CRBN, dBET6, with and without BRD4BD2.
For assay [2] the target is unchanged. As to the kind of experiment: FP lenalidomide-Atto565 displacement from DDB1ΔB-CRBN, dBET23, with and without BRD4BD2.
Assay [3] shares this target. As to the kind of experiment: FP lenalidomide-Atto565 displacement from DDB1ΔB-CRBN, dBET57, with and without BRD4BD2.

Chain of His6-DDB1ΔB-His6-CRBN complex (human) (Q16531 other isoform, or with tags, fused parts or gaps mutant, chain 1 of 2): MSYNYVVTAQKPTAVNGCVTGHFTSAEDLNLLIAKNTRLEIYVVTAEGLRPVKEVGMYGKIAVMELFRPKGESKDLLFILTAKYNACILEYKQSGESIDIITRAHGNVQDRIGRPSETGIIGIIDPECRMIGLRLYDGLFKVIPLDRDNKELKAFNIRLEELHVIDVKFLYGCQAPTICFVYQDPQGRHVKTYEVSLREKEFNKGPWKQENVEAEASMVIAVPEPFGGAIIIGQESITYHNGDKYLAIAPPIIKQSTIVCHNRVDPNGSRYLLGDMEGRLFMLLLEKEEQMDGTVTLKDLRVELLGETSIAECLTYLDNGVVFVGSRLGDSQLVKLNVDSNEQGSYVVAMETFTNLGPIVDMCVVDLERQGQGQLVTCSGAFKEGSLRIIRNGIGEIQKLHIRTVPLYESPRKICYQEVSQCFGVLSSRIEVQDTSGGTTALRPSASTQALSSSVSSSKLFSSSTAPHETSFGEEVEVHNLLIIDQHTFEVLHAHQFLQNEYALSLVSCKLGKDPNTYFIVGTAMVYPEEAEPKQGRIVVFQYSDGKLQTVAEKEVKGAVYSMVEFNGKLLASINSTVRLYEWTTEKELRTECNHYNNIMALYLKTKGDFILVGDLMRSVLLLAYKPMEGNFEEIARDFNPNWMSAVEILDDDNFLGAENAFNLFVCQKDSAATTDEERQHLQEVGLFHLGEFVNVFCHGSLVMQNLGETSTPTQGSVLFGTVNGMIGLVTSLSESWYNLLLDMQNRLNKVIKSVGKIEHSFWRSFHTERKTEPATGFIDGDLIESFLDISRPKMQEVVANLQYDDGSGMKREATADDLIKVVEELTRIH
Chain of His6-DDB1ΔB-His6-CRBN complex (human) (Q96SW2 whole entry, stated change not applied, chain 2 of 2, further chain): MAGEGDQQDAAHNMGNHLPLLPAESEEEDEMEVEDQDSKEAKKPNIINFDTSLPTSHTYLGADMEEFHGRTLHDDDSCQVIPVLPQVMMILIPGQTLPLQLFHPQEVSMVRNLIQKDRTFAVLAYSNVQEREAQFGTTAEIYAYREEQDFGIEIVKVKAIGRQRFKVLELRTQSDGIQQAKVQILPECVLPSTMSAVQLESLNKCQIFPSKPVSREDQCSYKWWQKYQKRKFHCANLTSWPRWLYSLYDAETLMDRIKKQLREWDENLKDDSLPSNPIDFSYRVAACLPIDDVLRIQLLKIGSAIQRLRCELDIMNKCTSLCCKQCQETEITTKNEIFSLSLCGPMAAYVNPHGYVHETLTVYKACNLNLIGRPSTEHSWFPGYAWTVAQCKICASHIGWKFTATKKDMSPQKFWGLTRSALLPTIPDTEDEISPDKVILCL

Turning to “BRD4BD2 (second bromodomain of human BRD4) (from UniProt O60885 333-460)”, the apparent cooperativity factor αapp (IC50[binary]/IC50[ternary]) in assay [1] is 0.2; in assay [2], less than 0.1; in assay [3], less than 0.1.
